Where a chain is given by its changes, count along the chain named. Like-named read-outs stand apart in the source and are kept apart here.

Assay [1] has as its target T1, human M-CSF (human, UniProt P09603 33-190).
T1 chain: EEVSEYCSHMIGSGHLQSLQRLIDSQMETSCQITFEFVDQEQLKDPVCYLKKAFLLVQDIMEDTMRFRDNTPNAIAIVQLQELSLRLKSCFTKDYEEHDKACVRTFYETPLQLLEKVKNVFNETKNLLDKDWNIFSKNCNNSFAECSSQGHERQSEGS
In words: SPR, BIACORE 3000, 25 C, M-CSF amine-coupled on CM5 chip, antibody injected, 1:1 global fit. In general terms: Surface plasmon resonance follows binding to a sensor surface in real time, without labels.

The target in assay [2] is T1, human M-CSF. In words: cell-based or functional assay.
For assay [3], the target named is T1, human M-CSF. The experiment in a line: receptor binding inhibition: antibody titrated against 125I-M-CSF binding to c-fms on cells (NIH-3T3/human c-fms or M-NSF-60).
In assay [4] the target is T1, human M-CSF. The experiment in a line: SPR, BIACORE 3000, 25 C, M-CSF amine-coupled on B1 chip, antibody injected, 1:1 global fit.
Assay [5] deals with T1, human M-CSF. In words: receptor binding inhibition: antibody titrated against 125I-M-CSF binding to c-fms on cells (NIH-3T3/human c-fms or M-NSF-60).
The target in assay [6] is T1, human M-CSF. The experiment in a line: cell-based or functional assay.

B1: monoclonal antibody 100 (antibody, human IgG2, kappa, V domains shown)
VH: EVQLLESGGGLVQPGGSLRLSCAASGFTFSSYAMSWVRQAPGKGLEWVSAISGRGGRTYFADSVKGRFTISRDNSKNTLYLQMNSLRAEDTAVYFCAVEGYSGRYGFFDYWGQGTLVTVSS
VL: EIVMTQSPATLSVSPGERATLSCRASQSVSSNLAWYQQKPGQAPRLLIYGASTRASGIPDRISGSGSGTEFTLIISSLQSEDFAVYYCQQSNNWPFTFGPGTKVDIKR
Take B1: in the assay with human M-CSF [1], binding was characterised by a dissociation constant (Kd) of 20 pM and the koff (as a rule, the first-order rate constant of dissociation) came to 1.7e-05 s⁻¹. In the assay with human M-CSF [2], the “Human Whole Blood Monocyte Activation Assay [IC50, M]” value was 1.53e-10 M and the “M-CSF Mouse Monocytic Cell Proliferation Assay [IC50, M]” value was found to be 7.44e-10 M. Moreover, in the assay with human M-CSF [3], the IC50 – broadly, the concentration at which inhibition is half-maximal – worked out at 1250 pM.

B2: monoclonal antibody 2.7.3 (antibody, human IgG4, kappa, V domains shown)
VH: QVQLVESGGGVVQPGRSLRLSCAASGFTFSSYGMHWVRQAPGKGLEWVAFIWYDGSNKYYADSVKGRFTISRDNSKNTLYLQMNSLRAEDTAVYYCARGYRVYFDYWGQGTLVTVSS
VL: DIQMTQSPSSVSASVGDRVTITCRASQDISSWLAWYQRKPGKAPKLQIYAASSLESGVPSRFNGSGSGTDFTLSISSLQPEDFATYYCQQTNSFPLTFGGGTKVEIKR
On to B2, for which the Kd (in general, the constant that tells how readily two partners part at equilibrium) with human M-CSF [4] was 4700 pM. In addition, in the assay with human M-CSF [2], the “Human Whole Blood Monocyte Activation Assay [IC50, M]” value came out at 7.15e-10 M and the “M-CSF Mouse Monocytic Cell Proliferation Assay [IC50, M]” value turned out to be 1.96e-10 M. In the assay with human M-CSF [3], this molecule yielded an IC50 of 308 pM.

B3: monoclonal antibody 3.8.3 (antibody, human IgG2, kappa, V domains shown)
VH: QVQLVESGGGLVKPGGSLRLSCAASGFTFSDYYMSWIRQAPGKGLEWFSYISSSGSTIYYADSVKGRFTISRDNAKNSLSLQMNSLRAEDTAVYYCARGLTGDYWGQGTLVTVSS
VL: DIQMTQSPSSVSASVGDRVTISCRASQDISGWLAWYQQKPGKAPKLLISATSSLHSGVPSRFSGSGSGTDFTLTISSLQPEDFATYYCQQTNSFPFTFGPGTKVDIKR
On to B3, for which the Kd with human M-CSF [4] is 400 pM. In the assay with human M-CSF [2], the “Human Whole Blood Monocyte Activation Assay [IC50, M]” value was found to be 8.6e-11 M and the “M-CSF Mouse Monocytic Cell Proliferation Assay [IC50, M]” value was 7.3e-11 M. For the same molecule, the IC50 with human M-CSF [3] was 70 pM.

B4: monoclonal antibody 9.14.4 (antibody, human IgG4, kappa)
heavy: QVQLVESGGGLVKPGGSLRLSCAASGFTFSDYYMSWIRQAPGKGLEWVSYISSSGSTIYYADSVKGRFTISRDNAKNSLYLQMNSLRAEDTAVYYCARGLTGDYWGQGTLVTVSSASTKGPSVFPLAPCSRSTSESTAALGCLVKDYFPEPVTVSWNSGALTSGVHTFPAVLQSSGLYSLSSVVTVPSSSLGTKTYTCNVDHKPSNTKVDKRVESKYGPPCPSCPAPEFLGGPSVFLFPPKPKDTLMISRTPEVTCVVVDVSQEDPEVQFNWYVDGVEVHNAKTKPREEQFNSTYRVVSVLTVLHQDWLNGKEYKCKVSNKGLPSSIEKTISKAKGQPREPQVYTLPPSQEEMTKNQVSLTCLVKGFYPSDIAVEWESNGQPENNYKTTPPVLDSDGSFFLYSRLTVDKSRWQEGNVFSCSVMHEALHNHYTQKSLSLSPGK
light: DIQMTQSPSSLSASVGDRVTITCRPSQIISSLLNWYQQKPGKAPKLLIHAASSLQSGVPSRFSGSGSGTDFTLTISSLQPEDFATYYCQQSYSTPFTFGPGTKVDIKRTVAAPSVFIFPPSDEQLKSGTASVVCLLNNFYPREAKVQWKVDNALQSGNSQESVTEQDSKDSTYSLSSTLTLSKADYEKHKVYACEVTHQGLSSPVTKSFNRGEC
On to B4, for which the IC50 in the assay with human M-CSF [5] worked out at 41 pM. Also, in the assay with human M-CSF [6], the “Human Whole Blood Monocyte Activation Assay [IC50, M]” value turned out to be 6.48e-10 M and the “M-CSF Mouse Monocytic Cell Proliferation Assay [IC50, M]” value was 2.02e-10 M.

B5: monoclonal antibody 1.120.1 (antibody, human IgG2, kappa, V domains shown)
VH: QVQLVQSGAEVKKPGASVKVSCKASGYTFTSYGISWVRQAPGQGLEWMGWISAYNGNTNYAQKLQDRVTMTTDTSTTTAYMELRSLRSDDTAVYYCARRAYGANFFDYWGQGTLVTVSS
VL: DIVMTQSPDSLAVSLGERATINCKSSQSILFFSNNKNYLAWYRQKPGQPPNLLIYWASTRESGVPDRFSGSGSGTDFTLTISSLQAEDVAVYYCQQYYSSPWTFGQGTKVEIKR
B5: in the assay with human M-CSF [4], the affinity, expressed as Kd, was 5400 pM. Also, in the assay with human M-CSF [2], the “Human Whole Blood Monocyte Activation Assay [IC50, M]” value was determined as 8.85e-10 M and the “M-CSF Mouse Monocytic Cell Proliferation Assay [IC50, M]” value worked out at 1.99e-10 M. Further, in the assay with human M-CSF [3], the IC50 was determined as 157 pM.

B6: monoclonal antibody 252 (antibody, human IgG2, kappa, V domains shown)
VH: QVQLVESGGGLVKPGGSLRLSCAASGFTFSDYYMSWIRQAPGKGLEWISYISGSGSTIYYADSVKGRFTISRDNAKNSLYLQMNSLRAEDTAVYHCARALGGMDVWGQGTTVTVSS
VL: DIQMTQSPSSLSASVGDRVTITCRASQSISGFLNWYQQKPGKAPKLLIYATSSLQSGVPFRFSGSGSGTDFTLTISSLQPEDFATYYCQQSYSVPFTFGPGTKVDIKR
In the case of B6, in the assay with human M-CSF [1], the Kd amounted to 13.3 pM and the koff came to 1.03e-06 s⁻¹. In the assay with human M-CSF [2], the “Human Whole Blood Monocyte Activation Assay [IC50, M]” value came out at 8.67e-10 M and the “M-CSF Mouse Monocytic Cell Proliferation Assay [IC50, M]” value came out at 1.86e-10 M. Further, the IC50 with human M-CSF [3] amounted to 747 pM.

B7: monoclonal antibody 9.7.2IF (antibody, human IgG2, kappa, V domains shown)
VH: B6 VH with I48V, G53S, H95Y, A99R, L100I
VL: B6 VL with N34I, K39R, F60S, V94T
Turning to B7, the IC50 in the assay with human M-CSF [5] was determined as 529 pM. Also, in the assay with human M-CSF [6], the “Human Whole Blood Monocyte Activation Assay [IC50, M]” value came out at 1.12e-09 M and the “M-CSF Mouse Monocytic Cell Proliferation Assay [IC50, M]” value is 7.37e-10 M.

B8: monoclonal antibody 88 (antibody, human IgG2, kappa, V domains shown)
VH: EVQLVESGGGLVQPGGSLRLSCAASGFTFSSYWMSWVRQAPGKGLEWVANIKQDGSEKYYVDSVKGRFTISRDNAKNSLYLQMNSLRAEDTAVYYCAPGIAAAGRAYWGQGTLVTVSS
VL: B6 VL with A25P, S28D, G31S, F32Y, T51A, F60L, V94T
In the assay with human M-CSF [1], B8 gave a Kd of 1330 pM and a koff of 7.3e-05 s⁻¹. In the assay with human M-CSF [2], the “Human Whole Blood Monocyte Activation Assay [IC50, M]” value is 5.8e-10 M and the “M-CSF Mouse Monocytic Cell Proliferation Assay [IC50, M]” value worked out at 2.31e-10 M. The molecule also showed an IC50 with human M-CSF [3] of 445 pM.

B9: monoclonal antibody 9.7.2 (antibody, human IgG4, kappa, V domains shown)
VH: B6 VH with I48V, G53S, H95Y, A99R, L100I
VL: B6 VL with N34I, K39R, F60L, G66E, V94T
B9 came in with an IC50 with human M-CSF [5] of 6 pM. In the assay with human M-CSF [6], the “Human Whole Blood Monocyte Activation Assay [IC50, M]” value stood at 1.98e-10 M and the “M-CSF Mouse Monocytic Cell Proliferation Assay [IC50, M]” value was found to be 7.37e-10 M.

B10: monoclonal antibody 9.14.4I (antibody, human IgG2, kappa)
heavy: QVQLVESGGGLVKPGGSLRLSCAASGFTFSDYYMSWIRQAPGKGLEWVSYISSSGSTIYYADSVKGRFTISRDNAKNSLYLQMNSLRAEDTAVYYCARGLTGDYWGQGTLVTVSSASTKGPSVFPLAPCSRSTSESTAALGCLVKDYFPEPVTVSWNSGALTSGVHTFPAVLQSSGLYSLSSVVTVPSSNFGTQTYTCNVDHKPSNTKVDKTVERKCCVECPPCPAPPVAGPSVFLFPPKPKDTLMISRTPEVTCVVVDVSHEDPEVQFNWYVDGVEVHNAKTKPREEQFNSTFRVVSVLTVVHQDWLNGKEYKCKVSNKGLPAPIEKTISKTKGQPREPQVYTLPPSREEMTKNQVSLTCLVKGFYPSDIAVEWESNGQPENNYKTTPPMLDSDGSFFLYSKLTVDKSRWQQGNVFSCSVMHEALHNHYTQKSLSLSPGK
light: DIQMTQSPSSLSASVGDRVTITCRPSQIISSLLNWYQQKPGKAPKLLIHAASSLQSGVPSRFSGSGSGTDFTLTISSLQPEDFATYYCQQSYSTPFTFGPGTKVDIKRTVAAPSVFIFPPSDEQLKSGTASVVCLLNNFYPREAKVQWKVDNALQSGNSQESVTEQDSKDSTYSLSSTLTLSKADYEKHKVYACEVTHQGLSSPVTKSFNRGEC
On to B10, for which the IC50 with human M-CSF [5] is 297 pM. In addition, in the assay with human M-CSF [6], the “Human Whole Blood Monocyte Activation Assay [IC50, M]” value was found to be 2.49e-10 M and the “M-CSF Mouse Monocytic Cell Proliferation Assay [IC50, M]” value is 2.02e-10 M.

B11: monoclonal antibody 8.10.3 (antibody, human IgG2, kappa, V domains shown)
VH: EVQLVESGGGLVQPGGSLRLSCAASGFTFSSFSMTWVRQAPGKGLEWVSYISSRSSTISYADSVKGRFTISRDNAKNSLYLQMNSLRDEDTAVYYCARDPLLAGATFFDYWGQGTLVTVSS
VL: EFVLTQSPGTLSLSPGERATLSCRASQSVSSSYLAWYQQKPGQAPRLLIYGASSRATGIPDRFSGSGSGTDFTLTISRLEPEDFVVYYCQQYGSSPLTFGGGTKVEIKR
notes: Human antibody from hybridoma 8.10.3
For B11, the IC50 in the assay with human M-CSF [5] was found to be 1500 pM. Moreover, in the assay with human M-CSF [6], the “Human Whole Blood Monocyte Activation Assay [IC50, M]” value came out at 2.8e-10 M and the “M-CSF Mouse Monocytic Cell Proliferation Assay [IC50, M]” value came out at 4.13e-10 M.

The values above are taken from US20080254032A1 (published 2008).
